Assay results reported in patent publication US20220267751A1 (MONASH UNIVERSITY, published 2022).

B1: recombinant alpha 2-antiplasmin (other, UniProt P08697 40-491, looked up)
chain: NQEQVSPLTLLKLGNQEPGGQTALKSPPGVCSRDPTPEQTHRLARAMMAFTADLFSLVAQTSTCPNLILSPLSVALALSHLALGAQNHTLQRLQQVLHAGSGPCLPHLLSRLCQDLGPGAFRLAARMYLQKGFPIKEDFLEQSEQLFGAKPVSLTGKQEDDLANINQWVKEATEGKIQEFLSGLPEDTVLLLLNAIHFQGFWRNKFDPSLTQRDSFHLDEQFTVPVEMMQARTYPLRWFLLEQPEIQVAHFPFKNNMSFVVLVPTHFEWNVSQVLANLSWDTLHPPLVWERPTKVRLPKLYLKHQMDLVATLSQLGLQELFQAPDLRGISEQSLVVSGVQHQSTLELSEVGVEAAAATSIAMSRMSLSSFSVNRPFLFFIFEDTTGLPLFVGSVRNPNPSAPRELKEQQDSPGNKDFLQSLKGFPRGDKLFGPDLKLVPPMEEDYPQFGSPK
notes: Serpin, immobilised on a Ni2+-NTA chip; also called α2-AP; α2AP
B2: recombinant plasmin (enzyme)
heavy: EPLDDYVNTQGASLFSVTKKQLGAGSIEECAAKCEEDEEFTCRAFQYHSKEQQCVIMAENRKSSIIIRMRDVVLFEKKVYLSECKTGNGKNYRGTMSKTKNGITCQKWSSTSPHRPRFSPATHPSEGLEENYCRNPDNDPQGPWCYTTDPEKRYDYCDILECEEECMHCSGENYDGKISKTMSGLECQAWDSQSPHAHGYIPSKFPNKNLKKNYCRNPDRELRPWCFTTDPNKRWELCDIPRCTTPPPSSGPTYQCLKGTGENYRGNVAVTVSGHTCQHWSAQTPHTHNRTPENFPCKNLDENYCRNPDGKRAPWCHTTNSQVRWEYCKIPSCDSSPVSTEQLAPTAPPELTPVVQDCYHGDGQSYRGTSSTTTTGKKCQSWSSMTPHRHQKTPENYPNAGLTMNYCRNPDADKGPWCFTTDPSVRWEYCNLKKCSGTEASVVAPPPVVLLPDVETPSEEDCMFGNGKGYRGKRATTVTGTPCQDWAAQEPHRHSIFTPETNPRAGLEKNYCRNPDGDVGGPWCYTTNPRKLYDYCDVPQCAAPSFDCGKPQVEPKKCPGR
light: VVGGCVAHPHSWPWQVSLRTRFGMHFCGGTLISPEWVLTAAHCLEKSPRPSSYKVILGAHQEVNLEPHVQEIEVSRLFLEPTRKDIALLKLSSPAVITDKVIPACLPSPNYVVADRTECFITGWGETQGTFGAGLLKEAQLPVIENKVCNRYEFLNGRVQSTELCAGHLAGGTDSCQGDSGGPLVCFEKDKYILQGVTSWGLGCARPNKPGVYVRVSRFVTWIEGVMRNN
notes: Made by cleaving rPlg with tPA; also called rPlm; recombinant Plm

How the values were obtained:
[1] = biological target: T1, recombinant plasminogen (human, UniProt P00747 20-810); assay: SPR (Biacore T200), α2-AP on Ni2+-NTA chip, 1:1 Langmuir model
T1 construct: also called rPlg; recombinant Plg

[2] = biological target: B2; assay: as above
[3] = biological target: T2, native plasmin (purchased from Haematologic Technologies) (UniProt P00747 97-580; P00747 581-810, limits assumed); assay: as above
T2 construct: Plasmin has two disulphide-linked chains (heavy and light); also called native Plm

[4] = biological target: T3, native plasminogen (purchased from Merck, purified from human plasma) (human, UniProt P00747 20-810); assay: SPR (Biacore T200), α2-AP on Ni2+-NTA chip, two-state reaction model; overall KD of the two-state reaction model
T3 construct: mature; also called native Plg; nPlg

[5] = biological target: T3, native plasminogen (purchased from …); assay: SPR (Biacore T200), α2-AP on Ni2+-NTA chip, two-state reaction model, ka1; ka1, first step of the two-state model
[6] = biological target: T3, native plasminogen (purchased from …); assay: SPR (Biacore T200), α2-AP on Ni2+-NTA chip, two-state reaction model, kd1; kd1, first step of the two-state model
[7] = biological target: T4, recombinant streptokinase from Streptococcus pyrogenes (so in the source) (Streptococcus pyrogenes (so in the source)); assay: SPR (Biacore T200), SK on Ni2+-NTA chip, 1:1 Langmuir model
T4 construct: Immobilised on a Ni2+-NTA chip; also called SK

Binder | Kd [1] | koff [1] | kon [1] | Kd [2] | koff [2] | kon [2] | Kd [3] | koff [3] | kon [3] | Kd [4] | kon [5] | koff [6] | Kd [7] | koff [7] | kon [7]
B1 | 3400 pM | 0.0005 s⁻¹ | 150000 M⁻¹ s⁻¹ | 680 pM | 0.00011 s⁻¹ | 160000 M⁻¹ s⁻¹ | 850 pM | 0.0043 s⁻¹ | 5.1e+06 M⁻¹ s⁻¹ | 9800 pM | 1.1e+06 M⁻¹ s⁻¹ | 0.065 s⁻¹ |  |  | 
B2 |  |  |  |  |  |  |  |  |  |  |  |  | 40 pM | 1.6e-05 s⁻¹ | 410000 M⁻¹ s⁻¹
